Patent US20250382355A1 (Merck Sharp & Dohme, published 2025)

B1: 15H1 VHH-Fc (Fc fusion)
chain: QVQLVESGGGLAQAGGSLRLSCASSGLIFSGSAMGWFRQAPGKEREFVGVISWNGRTTYADSVKGRFTISRDDAVNMVWLQMNNLKPEDTAVYYCAADHLNYGSGDVNPRTYDYWGQGTQVTVSS
B2: 8E9 VHH-Fc (Fc fusion)
chain: QVQLVESGGGLVEAGGSLRLSCVASGSSSSINAMGWYRQAPGKQRELVASISHDGETKYANSVKGRFTISRGNAKNTIYLQMNSLKPEDTAVYYCVGDVAWVVVAGEYDYWGQGTQVTVSS
B3: 11F8 VHH-Fc (Fc fusion)
chain: QVQLVESGGGLVQAGGSLRLSCAASGRTVGYYAVGWFRQAPGKERDFVAAISWSGRNTNYADSVTGRFTIFRDNAKNTVDLQMNSLKPEDTAVYYCAADYWNYGSGSEVPNNYDTWGQGTQVTVSS
B4: 15H7 VHH-Fc (Fc fusion)
chain: QVQLVESGGRLVQAGGSLRLSCAAPGRTFRNLTLGWFRQAPGKEREFVASTSWPDDEMTYYTDSVKGRFTISRDNAKNTVYLQMNSLKPEDTAVYYCAAASWSGRSTLSYDYDYWGQGTQVTVST
B5: 13C8 VHH-Fc (Fc fusion)
chain: QVQLVESGGGLVQAGGSLRLSCAASGRTVNKYMTGWFRQTPGKEREFVASIDWSSTTTHYANSVKGRFTISRDKVKNTVYLQMNGLKPEDTAVYYCAAHQDSSYGYTILPIDYDSWGQGTQVTVSS
B6: 5D7 VHH-Fc (Fc fusion)
chain: QVQLVESGGGLVQAGGSLRLSCAASGRTGSRYIMGWFRQAPGKEREFVAAINWRGDSTYYADSVKGRFTIARDNAKNTAYLQMNSLKPEDTAVYYCVADRGESYYYTRSTEYTYWGQGTQVTVSS

Molecular target: T1, SARS-CoV-2 prefusion-stabilized spike protein (SARS-CoV-2-PreS) (SARS-CoV-2, UniProt P0DTC2 14-1208)
Assay: ELISA

Point of comparison: B3, EC50 0.19 nM. Against it:
- B1 — within 1.5-fold, 0.14 nM
- B2 — 2.4-fold lower, 0.08 nM
- B4 — 3.8-fold lower, 0.05 nM
- B5 — 2.1-fold lower, 0.09 nM
- B6 — 1.7-fold lower, 0.11 nM

Molecular target: SARS-CoV-2 Omicron spike on pseudovirus (SARS-CoV-2)
Assay: cell-based or functional assay

Point of comparison: B2, “pseudovirus neutralization IC50” value 429 nM. Against it:
- B6 — 1.9-fold lower, 221 nM

Molecular target: T1, SARS-CoV-2 prefusion-stabilized spike …
Assay: Biacore, apparent affinity

B1 and B2 cannot be ordered by Kd: less than 0.2 nM for the first, less than 0.2 nM for the second.

B3 and B4 cannot be ordered by Kd: less than 0.2 nM for the first, less than 0.2 nM for the second.

B5 and B6 cannot be ordered by Kd: less than 0.2 nM for the first, less than 0.2 nM for the second.

Molecular target: T2, Biotinylated CoV2 Spike ECD PreS-AVI protein (SARS-CoV-2, UniProt P0DTC2 14-1208)
Assay: Octet binning; competitor 7A9

Point of comparison: B6, binning response 0.31. Against it:
- B1 — higher, 0.35
- B2 — higher, 0.39
- B3 — higher, 0.35
- B4 — higher, 0.37
- B5 — higher, 0.37

Molecular target: T2, Biotinylated CoV2 Spike ECD PreS-AVI …
Assay: Octet binning; competitor 8E9

Point of comparison: B5, binning response 0.09. Against it:
- B1 — lower, 0.08
- B2 — lower, 0.08
- B3 — higher, 0.12
- B4 — lower, 0.06
- B6 — higher, 0.1

Molecular target: T2, Biotinylated CoV2 Spike ECD PreS-AVI …
Assay: Octet binning; competitor 9B2

Point of comparison: B6, binning response 0.12. Against it:
- B1 — lower, 0.08
- B2 — lower, 0.11
- B3 — higher, 0.13
- B4 — lower, 0.08
- B5 — lower, 0.11

Molecular target: T2, Biotinylated CoV2 Spike ECD PreS-AVI …
Assay: Octet binning; competitor 11F8

Point of comparison: B3, binning response 0.14. Against it:
- B1 — lower, 0.09
- B2 — lower, 0.11
- B4 — lower, 0.11
- B5 — lower, 0.11
- B6 — lower, 0.12

Molecular target: T2, Biotinylated CoV2 Spike ECD PreS-AVI …
Assay: Octet binning; competitor 13C8

Point of comparison: B2, binning response 0.11. Against it:
- B1 — lower, 0.1
- B3 — higher, 0.15
- B4 — lower, 0.08
- B5 — lower, 0.1
- B6 — higher, 0.15

Molecular target: T2, Biotinylated CoV2 Spike ECD PreS-AVI …
Assay: Octet binning; competitor 15H1

Point of comparison: B4, binning response 0.09. Against it:
- B1 — higher, 0.11
- B2 — higher, 0.13
- B3 — higher, 0.15
- B5 — higher, 0.11
- B6 — higher, 0.16

Molecular target: T2, Biotinylated CoV2 Spike ECD PreS-AVI …
Assay: Octet binning; competitor 15H7

Point of comparison: B3, binning response 0.14. Against it:
- B1 — lower, 0.11
- B2 — lower, 0.11
- B4 — lower, 0.1
- B5 — lower, 0.1
- B6 — higher, 0.15

Molecular target: T2, Biotinylated CoV2 Spike ECD PreS-AVI …
Assay: Octet binning; competitor 1A11

Point of comparison: B5, binning response 0.11. Against it:
- B1 — lower, 0.08
- B2 — lower, 0.09
- B3 — higher, 0.12
- B4 — lower, 0.09
- B6 — higher, 0.12

Molecular target: T2, Biotinylated CoV2 Spike ECD PreS-AVI …
Assay: Octet binning; competitor Std-A

Point of comparison: B3, binning response 0.17. Against it:
- B1 — higher, 0.35
- B2 — higher, 0.36
- B4 — higher, 0.36
- B5 — higher, 0.34
- B6 — higher, 0.28

Molecular target: T2, Biotinylated CoV2 Spike ECD PreS-AVI …
Assay: Octet binning; competitor Std-B

Point of comparison: B5, binning response 0.31. Against it:
- B1 — lower, 0.3
- B2 — higher, 0.34
- B3 — lower, 0.29
- B4 — higher, 0.32
- B6 — lower, 0.25

Molecular target: T2, Biotinylated CoV2 Spike ECD PreS-AVI …
Assay: Octet binning; competitor Std-D

Point of comparison: B1, binning response 0.05. Against it:
- B2 — lower, 0.04
- B3 — higher, 0.08
- B4 — higher, 0.08
- B5 — lower, 0.04
- B6 — higher, 0.12
